This note sets out measurements from US20250011448A1 (STAIDSON BIOPHARMA, published 2025).

Experiment [1] deals with T1, human TNFR2 expressed on cells (Expi293 cells stably expressing huTNFR2) (human, UniProt P20333 23-461).
T1 construct: whole, on cells; Also used here as the target of the Treg assay (native TNFR2 on human primary Treg cells); also called huTNFR2 expressed cells; Expi293-TNFR2 cells
T1 sequence (looked up): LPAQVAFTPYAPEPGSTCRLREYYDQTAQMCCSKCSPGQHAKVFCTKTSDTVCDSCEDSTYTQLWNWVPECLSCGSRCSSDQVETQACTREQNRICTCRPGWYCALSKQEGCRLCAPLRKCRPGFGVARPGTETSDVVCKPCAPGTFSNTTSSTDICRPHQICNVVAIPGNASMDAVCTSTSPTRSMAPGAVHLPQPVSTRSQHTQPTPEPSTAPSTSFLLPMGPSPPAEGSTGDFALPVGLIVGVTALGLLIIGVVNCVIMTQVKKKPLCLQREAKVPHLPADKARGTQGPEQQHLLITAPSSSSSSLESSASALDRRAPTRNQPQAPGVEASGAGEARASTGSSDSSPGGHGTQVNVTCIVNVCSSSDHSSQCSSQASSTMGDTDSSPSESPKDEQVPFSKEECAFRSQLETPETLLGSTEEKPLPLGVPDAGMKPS
In words: flow cytometry on Expi293 cells stably expressing huTNFR2. The protocol:
(§1) The coding sequence of huTNFR2 (Uniprot, P20333) was cloned into a lentiviral vector and the virus was packaged according to the instruction of the virus packaging kit (Lenti-X™ Packaging Single Shots, Cat #631275, Takada). The Expi293 cells were transduced with the recombinant virus and selected by puromycin. The cell line stably expressing huTNFR2 was incubated with anti-TNFR2 antibodies in PBS with 0.5% BSA, 1 mM EDTA, and 0.1% sodium azide (FACS buffer) for 30 minutes at 4° C. The cells were washed, and then incubated with 10 nM phycoerythrin (PE) conjugated anti-Human Fe Ab (Biolegend, cat #409304) for 20 minutes at 4° C. Cells were washed and then […] by flow cytometry with Attune (ThermoFisher Scientific). Data were analyzed with FlowJo software. Antibody binding is represented as median fluorescence intensity (MFI).
As shown by the results in Table 9 and FIG. 4A, the anti-TNFR2 antibodies, 51B5, 102E4, 85G8.4, 29G3, 11C1, and 15H10 bind to Expi293-TNFR2 cells dose-dependently and potently.
For orientation: Flow cytometry measures light scatter and fluorescence of single cells or particles in a stream.

Experiment [2] addresses T2, cynomolgus monkey TNFR2 extracellular domain with C-terminal 10×His tag (cynomolgus monkey, UniProt P20333 23-257 (human entry)).
T2 construct: also called cynoTNFR2-His; His-tag-cynoTNFR2
T2 chain: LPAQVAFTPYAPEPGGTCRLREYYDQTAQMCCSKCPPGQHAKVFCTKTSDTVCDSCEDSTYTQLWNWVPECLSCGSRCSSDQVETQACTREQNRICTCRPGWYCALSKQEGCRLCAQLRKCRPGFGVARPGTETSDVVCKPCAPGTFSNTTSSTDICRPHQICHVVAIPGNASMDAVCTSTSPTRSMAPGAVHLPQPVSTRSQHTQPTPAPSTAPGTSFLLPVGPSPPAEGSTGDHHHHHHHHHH
Description: ELISA, plate coated with His-tagged TNFR2 ECD, serial dilution of chimeric IgG; ELISA; cynoTNFR2-His coated on plate at 1 µg/mL, bivalent IgG in solution. The protocol:
(§2) TNFR2 binding of purified recombinant chimeric antibodies: The huTNFR2, cynoTNFR2 antigen binding ELISA was performed on the purified recombinant chimeric antibodies. Briefly, 384-well, clear, flat bottom, high binding plates (VWR, cat #29444-096) were coated overnight at 4° C. with 1 μg/mL of huTNFR2 or cynomolgus monkey TNFR2-His in PBS. After removing the coating solution, the plates were blocked by adding blocking buffer and incubated at room temperature for 1 hour. Plates were then washed 3 times with wash buffer. Serial dilution of purified antibodies in PBS was added to individual well followed by incubation at room temperature for 1 hour. Plates were washed 3 times with wash buffer. Then 50 μL/well of goat anti hu Kappa —AP (Southern Biotech, cat #2061-04) at 1:3000 dilution or goat anti human IgG Fc-AP at 1:3000 dilution in ELISA diluent was added, incubated at room temperature for 1 hour, washed 5 times with wash buffer and developed for 30 minutes with 50 μL/well of pNPP substrate. Plates were analyzed with a Bio-TEK at 405 nm. The chimeric TNFR2 antibodies were tested positive for binding to huTNFR2 and cynoTNFR2. The TNFR2 binding EC50 values are shown in Table 6, FIG. 1A (for huTNFR2) and FIG. 1B (for cynoTNFR2).
Background: ELISA stands for enzyme-linked immunosorbent assay.

For experiment [3], the target named is T3, human TNFR2 extracellular domain fused to human IgG1 Fc (human, UniProt P20333 23-257).
T3 construct: also called TNFR2-huFc; huTNFR2; not shown: C-terminal human IgG1 Fc
T3 sequence: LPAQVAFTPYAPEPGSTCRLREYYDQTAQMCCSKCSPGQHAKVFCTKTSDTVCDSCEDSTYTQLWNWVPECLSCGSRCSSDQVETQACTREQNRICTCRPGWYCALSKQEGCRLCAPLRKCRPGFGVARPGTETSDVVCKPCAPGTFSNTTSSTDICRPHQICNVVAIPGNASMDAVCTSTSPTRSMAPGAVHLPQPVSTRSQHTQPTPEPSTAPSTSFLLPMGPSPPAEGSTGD
Description: blocking ELISA: antibody pre-mixed with huTNFR2, binding of huTNFR2 to coated human TNFα read out. The protocol: 96-well round bottom ELISA plates were coated overnight at 4° C. with 50 μL/well of 0.5 μg/mL human TNFα recombinant protein (R&D system, Cat #210-TA-100) in coating buffer. After removing the coating solution, blocking buffer was added into the plates followed by incubation at room temperature for 1 hour in order to block unspecific binding. During the blocking period, hybridoma antibodies samples were mixed with 0.5 μg/mL TNFR2-huFc at a 1:1 volume ratio and incubated at room temperature for another 1.5 hours. Then 50 μL/well of antigen-antibody mix solution was transferred into TNFα coated wells and incubated at room temperature for 1.5 hours. Plates were then washed 5 times with wash buffer. Then, 50 μL/well of goats anti-human IgG Fc-AP (Southern Biotech, cat #2014-04) at 1:2000 dilution in assay buffer was added, incubated at room temperature for 1 hour, washed 4 times with wash buffer and developed for 30 minutes with 50 μL/well of pNPP substrate. Plates were analyzed with a Synergy HT (Bio-TEK) at 405 nm. Parental hybridomas with the desired human and cynoTNFR2 binding as well as the ability to block human TNFR2 and human TNFα binding were prioritized for subcloning and further characterization. Subcloning was carried out with limited dilution and visual inspection was performed to ensure clonality. Hybridoma subclones were screened with the same binding and blocking assays and selected positive hits were cryopreserved.
TNFR2 blocking by purified recombinant chimeric antibodies: Human TNFR2 blocking ELISA was performed on purified recombinant chimeric antibodies following the same protocol as described above, except that 50 μL/well of serial dilution of purified antibodies (starting at 10 μg/mL, 1:3 dilution) in assay buffer was added into the reaction. The blocking IC₅₀ value represents the antibody concentration that inhibited 50% of huTNFR2 or cynoTNFR2 binding to coated human TNFα or cynomolgus monkey TNFα.

The target of experiment [4] is T4, human TNFR2 extracellular domain with C-terminal 10×His tag (human, UniProt P20333 23-257).
T4 construct: also called huTNFR2-His; His-tag-huTNFR2
T4 sequence: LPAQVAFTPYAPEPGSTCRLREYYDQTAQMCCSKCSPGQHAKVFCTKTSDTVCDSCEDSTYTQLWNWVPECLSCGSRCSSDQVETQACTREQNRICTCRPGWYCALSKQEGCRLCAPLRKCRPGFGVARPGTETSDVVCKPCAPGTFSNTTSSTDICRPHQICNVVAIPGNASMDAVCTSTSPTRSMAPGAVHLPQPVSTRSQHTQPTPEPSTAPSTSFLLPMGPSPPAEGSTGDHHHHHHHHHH
Description: ELISA, plate coated with His-tagged TNFR2 ECD, serial dilution of chimeric IgG. The protocol:
as §2

The target of experiment [5] is T4, human TNFR2 extracellular domain with …. Description: BLI (Octet RED96), antibody captured on AHC biosensor, His-tagged TNFR2 in solution, 1:1 model. The protocol:
The following kinetic assay was performed using anti-human IgG Fc capture (AHC) biosensors (ForteBio) in kinetics buffer (PBS, 0.1% Tween-20 and 1% bovine serum albumin): (a) antibody (2 μg/mL) for 300 sec, (b) baseline for 120 sec, (c) association with His-tag-huTNFR2 (2.5, 0.5 and 0 μg/mL) and His-tag-cynoTNFR2 (2.5, 0.5 and 0 μg/mL) for 420 sec and (d) dissociation for 1200 sec. Data fitting and analysis was performed with Octet data analysis software 8.0 (ForteBio) using a 1:1 binding model after Savitzky-Golay filtering.
For orientation: Biolayer interferometry detects binding as a change in optical thickness at a sensor tip.

The target of experiment [6] is T1, human TNFR2 expressed on cells (Expi293 …). Description: flow cytometry on Expi293 cells stably expressing huTNFR2, y axis TNFR2 binding (MFI). The protocol:
as §1
FACS based binding and blocking assays of humanized antibodies were performed as described above.

Experiment [7] deals with T4, human TNFR2 extracellular domain with …. In words: BLI (Octet RED96), AHC capture, His-tag-huTNFR2 in solution; antibody sample at week 0 of storage at 40 °C. The protocol: (§3) The following kinetic assay was performed using anti-human IgG Fc capture (AHC) biosensors (ForteBio) in kinetics buffer (PBS, 0.1% Tween-20 and 1% bovine serum albumin): (a) antibody sample (2 μg/mL) for 300 see, (b) baseline for 120 see, (c) association with His-tag-huTNFR2 (2.5, 0.5 and 0 μg/mL) for 420 sec and (d) dissociation for 1200 sec. Data fitting and analysis was performed with Octet data analysis software 8.0 (ForteBio) using a 1:1 binding model after Savitzky-Golay filtering.
(§4) The binding kinetic data were presented in Table 18, showing that the binding with human-TNFR2 was not affected under the accelerated thermal stressed condition (4 weeks at […]

Experiment [8] shares this target. Description: BLI (Octet RED96), AHC capture, His-tag-huTNFR2 in solution; antibody sample after 2 weeks at 40 °C. The protocol: as §3
Experiment [9] shares this target. Description: BLI (Octet RED96), antibody captured on AHC biosensor, His-tag-huTNFR2 in solution, 1:1 model. The protocol: The following kinetic assay was performed using anti-human IgG Fc capture (AHC) biosensors (ForteBio) in kinetics buffer (PBS, 0.1% Tween-20 and 1% bovine serum albumin): (a) antibody (2 μg/mL) for 300 sec, (b) baseline for 120 sec, (c) association with His-tag-huTNFR2 (2.5, 0.5 and 0 μg/mL) for 420 sec and (d) dissociation for 1200 sec. Data fitting and analysis was performed with Octet data analysis software 8.0 (ForteBio) using a 1:1 binding model after Savitzky-Golay filtering. The dissociation constant (Kd) was calculated as the ratio of Koff/Kon.

Experiment [10] shares this target. In words: BLI (Octet RED96), AHC capture, His-tag-huTNFR2 in solution; antibody sample after 4 weeks at 40 °C. The protocol:
as §3, §4

B1: 102E4 chimeric anti-TNFR2 antibody (antibody, V domains shown)
VH: EVLLQQSGAELVRPGASVKLSCTASGFNIKDDFIHWVQQRPEQGLEWIGRINPSNANTEYAPKFQDKATITTDTSSNTAYLQLSSLTSEDTAVYYCTRNDGYYDGLFYWGQGTTLTVSS
VL: DIVMTQSHKFMSSSVGDRVSITCKASQDVGTAVAWYQQKPGQSPKLLIYWASTRHTGVPDRFTGSGSGTDFTLTISNVQSEDLADYFCQQYSSYPFTFGSGTKLEIK
notes: Chimeric: mouse variable domains with human constant regions, made as recombinant IgG1
With B1, it took 0.819 nM to reach a half-maximal effect in experiment [1] (EC50). Further, in experiment [2], the EC50 (as a rule, the concentration needed to bring the measured effect to its halfway point) is 0.338 nM. Moreover, in experiment [3], the IC50 (as a rule, the concentration needed to halve the response being measured) came to 1.13 nM. In experiment [4], this molecule showed an EC50 of 0.04 nM. Besides, in [5], the dissociation constant (Kd) (in general, a measure of binding affinity in units of concentration) was 1.59 nM; the off-rate constant (koff) (in general, the first-order rate constant of dissociation) was determined as 0.000696 s⁻¹; the association rate constant (kon) (usually the rate constant with which the complex forms) is 439000 M⁻¹ s⁻¹.

B2: SB1901-72 humanized anti-TNFR2 antibody (antibody, V domains shown)
VH: QVQLVQSGAEVKKPGASVKVSCKASGYTFTDDYIDWVRQATGQGLEWIGEIYPGSGNTYYNEKFKGRVTMTRDKSISTAYMELSSLRSEDTAVYYCARSQVYGKIAMDHWGQGTLVTVSS
VL: DIVMTQSPDSLAVSLGERATINCRASESVDNSGNSFMHWYQQKPGQPPKLLIYRASNLESGVPDRFSGSGSRTDFTLTISSLQAEDVAVYYCQQSKEDPYTFGQGTKVEIK
As to B2, the concentration giving a half-maximal response (EC50 (read off the curve)) (in general, the concentration needed to bring the measured effect to its halfway point) in experiment [6] was ~0.6 nM. Besides, the Kd was 1.68 nM in experiment [7], 1.35 nM in experiment [8], 1.11 nM in experiment [9] and 1.06 nM in experiment [10]. The dissociation rate constant (koff) turned out to be 0.000495 s⁻¹ in experiment [7], 0.000471 s⁻¹ in experiment [8], 0.000456 s⁻¹ in experiment [9] and 0.000527 s⁻¹ in experiment [10]. For the same molecule, the kon in [7] worked out at 295000 M⁻¹ s⁻¹; in experiment [8] it was 348000 M⁻¹ s⁻¹; in [9], 412000 M⁻¹ s⁻¹; in experiment [10], 497000 M⁻¹ s⁻¹.
